Values joined by “and” are separate entries in the source; they are usually repeats but may differ in a detail not shown here. Identical values can stand only once.
How the values were obtained:
BXPC3 tumor [1] = assay: Therapeutic effect of doxorubicin-loaded chitosan nanobubbles in BXPC3 mouse model
Method: The amount of doxorubicin loaded nanobubbles used for the treatments in each group corresponded to 2 mg/kg per week of doxorubicin for each different treatment modality. Data are represented as mean±SD.
P-value was calculated using the log-rank test. Colored areas correspond to 95% confidence interval.
The survival data from the four treatments were evaluated by Kaplan-Meier curves to compare each treatment with one at time of the others. […] P-value was calculated using the log-rank test. Colored areas correspond to 95% confidence interval.
The study started when the subcutaneous BXPC3-tumor reached a volume of 75 mm^3. The humanitarian endpoints that had caused the euthanasia of mice were: one tumor dimension greater than 12 mm or ulceration of the tumor. Four groups of mice were tested: a first group of animals treated with doxo-CS NBs-C (n=6); a second group of animals treated with doxo-CS NBs (n=6); a third group of control animals treated with doxorubicin (doxo 2 mg/kg) in order to treat mice at the same concentration (2 mg/kg for a week) (n=10); a fourth group of control animals treated with PBS solution (n=8).
Mice survival was evaluated using Kaplan-Meier curves and the p-value was calculate using log rank test.

GPC1 protein [2] = biological target: T1, GPC1 protein (Homo sapiens, UniProt P35052); assay: Immunofluorescence of GPC1 protein in BXPC3 xenograft tumor masses and mouse organs; parameters: species or system athymic nude mice; conditions: tumor masses of BXPC3 xenografts
T1 construct: in tumor masses of xenografts obtained by subcutaneous injection of BXPC3 into athymic nude mice; from tissue; host or cells: BXPC3 xenograft tumour masses from athymic nude mice; organs of the same mice as negative control
T1 sequence (P35052 24-530 limits assumed): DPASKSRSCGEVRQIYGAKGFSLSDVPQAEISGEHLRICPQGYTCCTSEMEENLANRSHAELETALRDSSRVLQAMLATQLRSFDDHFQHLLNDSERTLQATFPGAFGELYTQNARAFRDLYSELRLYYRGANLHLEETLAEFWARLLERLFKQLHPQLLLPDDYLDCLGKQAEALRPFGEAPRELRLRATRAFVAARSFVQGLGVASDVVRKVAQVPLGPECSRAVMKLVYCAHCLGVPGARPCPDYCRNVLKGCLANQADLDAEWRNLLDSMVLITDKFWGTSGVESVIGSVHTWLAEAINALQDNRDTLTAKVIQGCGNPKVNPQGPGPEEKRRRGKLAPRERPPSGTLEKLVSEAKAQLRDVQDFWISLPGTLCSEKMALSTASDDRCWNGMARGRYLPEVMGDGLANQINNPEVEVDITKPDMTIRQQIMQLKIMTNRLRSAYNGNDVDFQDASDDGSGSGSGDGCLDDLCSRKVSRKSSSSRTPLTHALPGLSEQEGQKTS
Method: (§1) Scale bar corresponds to 25 μm.
(§2) Remarkably, the same expression pattern as flow cytometry analysis was obtained by immunofluorescence analysis with anti-GPC1 C. […] Thus, the results of immunofluorescence analysis confirmed the ability of anti-GPC1 C to detect the GPC1 protein that was observed when flow cytometry was performed (FIGS. 1A, 1B). • c) Anti-GPC1 C was also shown to specifically recognize GPC1 protein in GBM tissue samples from surgical resection.

GPC1 protein [3] = assay: as above; parameters: species or system athymic nude mice; conditions: organs of the xenograft mice
Method: as §1, §2

BXPC3 tumor [4] = tested on: BXPC3 tumor
Method: Experimental endpoint was set up at day 50. Untreated mice (orange line) were used as controls. Data were visualized using Kaplan-Meier analysis, p-value of 0.00016 was calculated using the log rank test.
Data are represented as mean±standard error (SE).
The treatment procedure started when the tumor reached a volume of 75 mm^3, and when possible, it was stopped at day 42. For mice reaching the day 42, the final experimental endpoint was set up at day 50 from the beginning of the treatment procedure.

GPC1 protein [5] = assay: Immunofluorescence of GPC1 protein in cell lines; assay type: cell-based, human; conditions: JURKAT cells
Method: as §2

GPC1 protein [6] = biological target: T2, GPC1 protein (Homo sapiens, UniProt P35052); assay: Flow cytometry analysis of GPC1 expression in cell lines; assay type: cell-based; parameters: endogenous in cells; host or cells: BXPC3, U87MG, T98G (GPC1-expressing); JURKAT (no GPC1); conditions: GPC1-expressing BXPC3, U87MG and T98G cell lines
T2 sequence (P35052 24-530): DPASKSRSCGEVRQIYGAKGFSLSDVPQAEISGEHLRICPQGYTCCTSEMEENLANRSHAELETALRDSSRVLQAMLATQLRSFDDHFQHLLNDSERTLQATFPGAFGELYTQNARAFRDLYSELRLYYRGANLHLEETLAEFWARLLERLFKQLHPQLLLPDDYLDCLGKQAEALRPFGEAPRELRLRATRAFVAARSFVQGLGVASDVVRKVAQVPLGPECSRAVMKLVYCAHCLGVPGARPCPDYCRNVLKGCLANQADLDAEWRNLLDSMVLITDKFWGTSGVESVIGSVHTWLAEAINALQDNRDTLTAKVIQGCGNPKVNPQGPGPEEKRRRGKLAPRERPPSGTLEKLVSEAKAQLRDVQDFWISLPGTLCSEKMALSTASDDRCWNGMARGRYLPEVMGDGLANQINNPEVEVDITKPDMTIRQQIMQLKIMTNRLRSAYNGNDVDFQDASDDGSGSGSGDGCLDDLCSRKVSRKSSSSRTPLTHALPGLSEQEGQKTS
Method: as §2

GPC1 protein [7] = biological target: T2, GPC1 protein; assay: Immunofluorescence of GPC1 protein in cell lines; assay type: cell-based; parameters: endogenous in cells; host or cells: BXPC3, U87MG, T98G (GPC1-expressing); conditions: BXPC3, U87MG and T98G cell lines
Method: as §2

BXPC3 tumor mass [8] = assay: Complement-dependent cytotoxicity in BXPC3 tumor mass (hematoxylin-eosin, immunofluorescence); conditions: compared with murine IgM pool or PBS
Method: The nuclei are stained in purple, the cytoplasm is stained in pink.
Blue represents nuclei and green represents the signal related to the immunological cell biomarkers (CD14 and CD56, respectively).
Blue represents nuclei and green represents the signal related to the complement system effectors (C1q, C3, C9, respectively).
To better characterize the source of cell death, the presence of complement system effectors, but also the recruitment of macrophages, and NK cells was also analyzed by immunofluorescence analysis (FIGS. 7A, 7B).
In particular, the involvement of the complement system was investigated, by analyzing C1q, C3 (C3b, iC3b, C3c), and C9.

GPC1 protein [9] = assay: Flow cytometry analysis of GPC1 expression in cell lines; assay type: cell-based, human; conditions: JURKAT cell line (complete absence of GPC1 protein)
Method: as §2

BXPC3 tumor mass [10] = assay: In vivo and ex vivo biodistribution of Cy5.5-conjugated anti-GPC1 C in BXPC3 xenograft mice; parameters: species or system athymic nude mice
Method: Whole-body scan of a representative mouse in prone and supine position is shown. […] Green circles enclose the tumor mass.
Data are reported as average efficiency mean±SD (n=4). P-value was calculated using the t-test, for the t-test, anti-GPC1 C was used as reference for each time point. ns: ≥0.05; *: 0.05<p≤0.01; **: 0.01<p≤0.001.
Data are reported as mean±SD (n=4). P-value was calculated using the t-test. ns: ≥0.05.
Blue represents nuclei and green represents IgMs. Scale bar corresponds to 25 μm.
Specifically, in vivo time course experiments with signal detection from 0 to 96 hours and signal evaluation every 24 hours were performed to evaluate the ability to target tumor mass and the overall biodistribution of anti-GPC1 C when injected into the mouse tail vein after conjugation with Cy5.5 for detection using the VIVOVISION IVIS®Lumina (Xenogen) in vivo imaging device (FIGS. 5A, B, C, D, E, F, G).

GPC1 protein [11] = biological target: T2, GPC1 protein; assay: Immunofluorescence of GPC1 protein in GBM, liver and lung tissue; parameters: specifically recognize GPC1 protein in GBM tissue samples from surgical resection; from tissue; host or cells: glioblastoma (GBM) tissue from surgical resection; healthy liver and lung tissue
Method: Scale bar corresponds to 50 μm.
as §2

[12] = 7 mice, i.p. 38 micrograms twice a week
[13] = i.v., Cy5.5 conjugate, in vivo imaging

Molecule: COc1cccc2c1C(=O)c1c(O)c3c(c(O)c1C2=O)C[C@@](O)(C(=O)CO)C[C@@H]3O[C@H]1C[C@H](N)[C@H](O)[C@H](C)O1 [Doxo, doxorubicin]
- Mean survival ± S.D. (BXPC3 tumor [1]; 2 mg/kg doxorubicin per week): 13.9 ± 1.59 days
- HR (BXPC3 tumor [1]; reference treatment: Untreated): 0.19

B1: anti-GPC1 C: anti-GPC1 IgM monoclonal antibody of the invention, heavy chain variable region SEQ ID NO: 13, light chain variable region SEQ ID NO: 14 (antibody, listed as Mus musculus, V domains shown)
VH: QVQLQQSDAELVKPGASVKISCKASGYTFTDHAIHWVKQKPEQGLEWIGYISPGNGDIKYNEKFKGKATLTADKSSSTAYMQLNSLTSEDSAVYFCKRYAYWGQGTLVTVSA
VL: DVLMTQTPLSLPVSLGDQASISCRSSQSIVHSNGNTYLEWYLQKPGQSPKLLIYKVSNRFSGVPDRFSGSGSGTDFTLKISRVEAEDLGVYYCFQGSHVPWTFGGGTKLEIKP
modifications: IgM constant regions
- GPC1 protein recognition by immunofluorescence (GPC1 protein [2]): specifically recognize the GPC1 protein
- GPC1 protein signal by immunofluorescence (GPC1 protein [3]): no signals were obtained
- % survival at day 50 (BXPC3 tumor [4]; [12]): 57.1%
- Mean day of euthanasia/sacrifice (BXPC3 tumor [4]; [12]): 42.7
- Day of end point (BXPC3 tumor [4]; individual mouse, i.p. 38 micrograms twice a week until day 42, experimental endpoint day 50): 28 and 29 and 42 and 50 (4×)
- complete remission of the tumor mass (BXPC3 tumor [4]; observed in one animal): complete remission
- survival time intervals versus PBS-treated mice (BXPC3 tumor [4]; p=0.00016, log-rank test): significantly longer
- toxicity (weight loss, diarrhea, vomiting, convulsions, dehydration, tachypnea, dyspnea, motionless) (BXPC3 tumor [4]; treated group): no evidence of toxicity
- GPC1 protein signal by immunofluorescence (GPC1 protein [5]): no signal was observed
- GPC1 protein recognition by flow cytometry (GPC1 protein [6]): specifically recognize the GPC1 protein
- GPC1 protein signal by immunofluorescence (GPC1 protein [7]): a signal corresponding to the GPC1 protein was observed
- tumor cell death by hematoxylin-eosin staining (BXPC3 tumor mass [8]; 96 hours): clear indicator of cell death
- complement system deposition (C1q, C3, C9), macrophage and NK cell recruitment in tumors (BXPC3 tumor mass [8]; immunofluorescence): high degree of complement system deposition (C1q, C3, C9), macrophage and NK cell recruitment
- GPC1 protein signal by flow cytometry (GPC1 protein [9]): no signals corresponding to the presence of the GPC1 protein
- ex vivo accumulation in the tumor mass compared to the IgM pool (BXPC3 tumor mass [10]; 96 hours after administration, IVIS Lumina): higher accumulation
- ex vivo immunofluorescence detection in the BXPC3 tumor mass (BXPC3 tumor mass [10]; 96 hours after injection): still detected
- time remaining in the tumor (BXPC3 tumor mass [10]; ex vivo immunofluorescence): at least 96 hours
- peak of accumulation on the tumor mass (BXPC3 tumor mass [10]; i.v., Cy5.5 conjugate, BXPC3 xenograft, imaging every 24 h from 0 to 96 h): 72 h
- signal in the kidneys and liver (BXPC3 tumor mass [10]; [13]): A clear signal
- tumor mass signal at 96 hours (BXPC3 tumor mass [10]; [13]): maintained up to 96 hours
- GPC1 protein signal by immunofluorescence (GPC1 protein [11]; GBM tissue samples from surgical resection): a specific signal was observed
- GPC1 protein signal by immunofluorescence (GPC1 protein [11]; healthy tissues (liver and lung)): no signal corresponding to GPC1 protein was detected

— patent US20260152569A1, “ANTI-GPC1 MONOCLONAL ANTIBODY, THERAPEUTIC AND DIAGNOSTIC USES THEREOF” (CENTRO DI RIFERIMENTO ONCOLOGICO DI AVIANO, priority 2022, published 2026)
